Results as given in US9486519B2, “Use of FLT3 ligand for enhancing immune responses in RNA immunization” (BioNTech AG, priority 2008, dated 2016).
“Also recorded” adds a separate entry of the source.

Legend:
[1] = system: antigen-specific CD8+ T lymphocytes; test: Effects of different Flt3L on the stimulation of naive T cells, MHC multimer measurement in peripheral blood; assay type: in vivo, C57BL/6 mice; conditions: 0.4 mol i.p. day 0, +3; 20 μg SIINFEKL coding RNA day +7, +10; blood day +15
Method: (§1) These mice were immunized intralymphatically on day +7, +10 with 20 μg […] coding RNA. The control group remained untreated (n=2). On day +15 the frequency of antigen-specific CD8^+ T lymphocytes was measured in peripheral blood by means of MHC multimer measurement.
To this end a product recombinantly expressed in bacteria (Peprotech Flt3L) and a product expressed in human HEK293 cells (Humanzyme Flt3L) was used; cf. Example 7. Human IgG4 served as control.
as §1, with “measured by flow cytometry” for “measured”, “measurement (Beckman Coulter).” for “measurement.”
The mice were administered intraperitoneally Flt3L in equimolar amounts (day 0, +3). In addition, mice were immunized intranodally twice with […] coding RNA (+7, +10). The success of the immunization was quantified by flow cytometry on day +15 by means of tetramer staining.

dendritic cells = test: Activation status (CD86, CD80, MHC-II, CD40) of lymph node dendritic cells after Flt3L; assay type: in vivo, C57BL/6 mice; conditions: 10 μg day 0 and 3; day 10
Method: In addition, C57BL/6 mice (n=3-7) were administered Flt3L twice (day 0 and 3, each time 10 μg). On day 10 the lymph nodes were removed and the activation status (CD86, CD80, MHC-II, CD40) of the dendritic cells was determined by flow cytometry.

[2] = system: SIINFEKL epitope-specific CD8+ T cells; test: Tetramer and intracellular IFNγ measurement after Flt3-L pretreatment and intranodal RNA immunization; assay type: in vivo, C57Bl/6 mice; conditions: dose above 2×10 μg; data not shown
B16 Ova tumors = test: Therapeutic vaccination against B16 Ova tumors, tumor volume; assay type: in vivo, C57BL/6 mice
Method: Examination of tumor growth. To this end, four groups (n=10) of C57BL/6 mice were formed. All mice received on day 0 a s.c. injection of B16 Ova tumor cells (2×10^5). Hereof a control group was only treated by IgG4 injection (15 μg; d3, d7, d14, d18). […] The tumor volume was determined after tumor inoculation on a regular basis (d7, d10, d13, d16, d19, d22). The average tumor volume [mm^3] on the days following tumor inoculation [day] is shown.
To this end four groups (n=10) of C57BL/6 mice were formed. All mice received on day 0 a s.c. injection of 2×10^5 B16 Ova tumor cells (Bellone et al., J. Immunol., 2000, 165:2651-2656). Thereof a control group was only treated by injection of IgG4 (15 μg; d3, d7, d14, d18). […] The tumor volume was determined on the following days after tumor inoculation: d7, d10, d13, d16, d19 and d22 (d=day).

B1: Flt3L-IgG4: recombinant human Flt3 ligand prepared as a fusion protein with IgG4, SEQ ID NO: 6, expressed in HEK293 cells (protein)
chain: MTVLAPAWSPTTYLLLLLLLSSGLSGTQDCSFQHSPISSDFAVKIRELSDYLLQDYPVTVASNLQDEELCGGLWRLVLAQRWMERLKTVAGSKMQGLLERVNTEIHFVTKCAFQPPPSCLRFVQTNISRLLQETSEQLVALKPWITRQNFSRCLELQCQPDSSTLPPPWSPRPLEATAPTAPQPPRSPPCPSCPAPEFLGGPSVFLFPPKPKDTLMISRTPEVTCVVVDVSQEDPEVQFNWYVDGVEVHNAKTKPREEQFNSTYRVVSVLTVLHQDWLNGKEYKCKVSNKGLPSSIEKTISKAKGQPREPQVYTLPPSQEEMTKNQVSLTCLVKGFYPSDIAVEWESNGQPENNYKTTPPVLDSDGSFFLYSRLTVDKSRWQEGNVFSCSVMHEALHNHYTQKSLSLSPGK
modifications: Fusionsprotein
adjuvant effect (frequency of antigen-specific CD8+ T lymphocytes) [1]: significant adjuvant effect; also recorded: strongest effect | maturation of the dendritic cells in the lymph node (dendritic cells): does not lead to maturation of the dendritic cells | immune response on increase of the Flt3-L dose [2]: not correlated with a further intensification of the immune response | tumor growth (B16 Ova tumors; Flt3L administration combined with RNA vaccination): complete suspension of tumor growth | tumor growth (B16 Ova tumors; only Flt3L administered, 15 μg): slight delay of tumor growth | effect of the combination with intranodal vaccination of RNA (B16 Ova tumors; tumor volume): synergistic effect
